One experiment concerns the target T1, FX zymogen (Homo sapiens (Human), UniProt P00742 41-179; P00742 183-488).
T1 construct: Light and heavy chain of secreted FX zymogen, disulfide linked; also called Factor X zymogen; factor X zymogen
Briefly: not stated (Table 3).

In experiment [1] the target is T2, FIXa-SM (FIXa+EGR-CMK) (human, UniProt P00740 47-191; P00740 227-461, EGR-CMK (L-Glu-Gly-Arg chloromethyl ketone) covalently bound to the active site).
T2 construct: BLI antigen bought from Haematologic Technologies (HCIXA-EGR); also called FIXa with substrate mimic
As to the kind of experiment: BLI; class meaning: paragraph 914.

For experiment [2], the target named is T3, free FIXa (activated Factor IX) (human, UniProt P00740 47-191; P00740 227-461).
T3 construct: BLI antigen bought from Haematologic Technologies (HCIXA-0050); also called factor IXa
As to the kind of experiment: BLI, 200 nM FIXa in HBS with or without 5 mM CaCl2. In general terms: Biolayer interferometry detects binding as a change in optical thickness at a sensor tip.

Experiment [3] concerns the target T2, FIXa-SM (FIXa+EGR-CMK). Briefly: BLI co-binding: biotinylated FIXa-SM on streptavidin sensor, then 100 nM bispecific, then 200 nM FX.
Description: Following incubation in Tris-buffered saline supplemented with 0.1% bovine serum albumin and 5 mM CaCl₂ (referred to as buffer in FIG. 21), the biosensors were then incubated with biotinylated FIXa-SM produced in-house. […] Finally, the same biosensors were incubated with 200 nM of non-biotinylated FX (non-activated Factor X).
Experiment [4] deals with T3, free FIXa (activated Factor IX). As to the kind of experiment: BLI, IgG on AHQ sensor, 100 nM antigen (the weaker partner).
Description: BLI was performed on the OctetRed94 or the Octet HTX system, according to standard procedure. Briefly, biosensors were equilibrated in Tris-buffered saline supplemented with 5 mM CaCl₂ and 0.1% bovine serum albumin (TBSFCa). Plates were then transferred to the instrument. A soak step was performed on the instrument, with incubation of the biosensors for 60 seconds in TBSFCa. […] Following this, the biosensors were incubated in TBSFCa for 60 seconds to establish baseline. Next, the biosensors were transferred to wells containing the desired antigen (100 nM in TBSFCa) and incubated for 90 seconds. Finally, the sensors were transferred to TBSFCa alone for 90 seconds incubation.
The next experiment concerns the target T4, FXa-SM (FXa+EGR-CMK) (human, UniProt P00742 41-179; P00742 235-488, EGR-CMK covalently bound to the active site).
T4 construct: Bought from Haematologic Technologies (HCXA-EGR); also called covalently modified FXa; FXa mimic
As to the kind of experiment: BLI; class meaning: paragraph 285.

T4 sequence (P00742 41-179, chain 1 of 2): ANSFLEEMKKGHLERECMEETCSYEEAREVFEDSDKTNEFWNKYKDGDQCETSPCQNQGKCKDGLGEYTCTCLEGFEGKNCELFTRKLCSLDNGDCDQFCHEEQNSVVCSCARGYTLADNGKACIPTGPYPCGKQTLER
T4 sequence (P00742 235-488, chain 2 of 2): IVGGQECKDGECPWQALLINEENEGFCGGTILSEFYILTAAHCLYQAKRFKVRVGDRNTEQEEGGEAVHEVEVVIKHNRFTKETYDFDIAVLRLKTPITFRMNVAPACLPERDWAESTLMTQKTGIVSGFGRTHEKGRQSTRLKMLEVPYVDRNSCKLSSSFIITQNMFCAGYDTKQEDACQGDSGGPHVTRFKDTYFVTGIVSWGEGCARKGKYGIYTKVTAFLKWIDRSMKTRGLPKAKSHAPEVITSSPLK
T1 sequence (P00742 41-179, chain 1 of 2): as the sequence (P00742 41-179, chain 1 of 2) above
T1 sequence (P00742 183-488, chain 2 of 2): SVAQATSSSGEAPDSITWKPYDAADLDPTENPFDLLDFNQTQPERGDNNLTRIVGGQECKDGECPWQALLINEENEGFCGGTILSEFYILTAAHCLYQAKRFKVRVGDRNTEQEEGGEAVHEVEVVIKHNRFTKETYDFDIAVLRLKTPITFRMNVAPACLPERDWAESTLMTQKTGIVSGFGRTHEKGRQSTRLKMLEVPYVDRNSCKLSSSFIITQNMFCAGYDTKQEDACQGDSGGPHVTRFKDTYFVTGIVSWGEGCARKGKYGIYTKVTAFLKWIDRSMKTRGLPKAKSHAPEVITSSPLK

B1: BS-027 (antibody, V domains shown)
VH: EVQLVQSGAEVKKPGESLKISCKGSGYSFTTYWIGWVRQMPGKGLEWMGIIYPGDSDTRYSPSFQGQVTISADKSISTAYLQWSSLKASDTAMYYCARGRFRPRGRFDYWGQGTLVTVSS
VL: EIVMTQSPATLSVSPGERATLSCRASQSVSSNLAWYQQKPGQAPRLLIYGASTRATGIPARFSGSGSGTEFTLTISSLQSEDFAVYYCQQLFNHPPTFGGGTKVEIK
notes: also called anti-FX arm of BS-027025 and BS-027125; BS-027 FX homodimer
Take B1: the Kd with FX zymogen was determined as 20 nM.

B2: BIIB-9-484 (antibody, V domains shown)
VH: EVQLVESGGGLVKPGGSLRLSCAASGFTFSSYSMNWVRQAPGKGLEWVSSISSSSSYIYYADSVKGRFTISRDNAKNSLYLQMNSLRAEDTAVYYCARDVGGYAGYYGMDVWGQGTTVTVSS
VL: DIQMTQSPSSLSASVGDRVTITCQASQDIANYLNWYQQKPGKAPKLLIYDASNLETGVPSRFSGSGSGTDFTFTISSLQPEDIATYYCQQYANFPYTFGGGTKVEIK
notes: IgG
Consider B2, for which the binding result (with FIXa-SM (FIXa+EGR-CMK) [1]; in experiment [2]) was “binds” in each case.

B3: BIIB-9-484/BIIB-12-917 (bispecific antibody, V domains shown)
VH 1: EVQLVESGGGLVKPGGSLRLSCAASGFTFSSYSMNWVRQAPGKGLEWVSSISSSSSYIYYADSVKGRFTISRDNAKNSLYLQMNSLRAEDTAVYYCARDVGGYAGYYGMDVWGQGTTVTVSS
VL 1: not shown
VH 2: EVQLVQSGAEVKKPGESLKISCKGSGYSFTTYWIGWVRQMPGKGLEWMGIIYPGDSDTRYSPSFQGQVTISADKSISTAYLQWSSLKASDTAMYYCARGRFRPRGRFDYWGQGTLVTVSS
VL 2: EIVMTQSPATLSVSPGERATLSCRASQSVSSNLAWYQQKPGQAPRLLIYGASTRATGIPARFSGSGSGTEFTLTISSLQSEDFAVYYCQQLFNHPPTFGGGTKVEIK
As to B3, the binding result with FIXa-SM (FIXa+EGR-CMK) [3] is recorded as “binds”.

B4: BIIB-9-578 (antibody, V domains shown)
VH: QLQLQESGPGLVKPSETLSLTCTVSGGSISSSSYYWGWIRQPPGKGLEWIGSISYSGSTYYNPSLKSRVTISVDTSKNQFSLKLSSVTAADTAVYYCARDKYQDYSFDIWGQGTMVTVSS
VL: DIQMTQSPSSVSASVGDRVTITCRASQGIDSWLAWYQQKPGKAPKLLIYAASSLQSGVPSRFSGSGSGTDFTLTISSLQPEDFATYYCQQANFLPFTFGGGTKVEIK
notes: IgG
Regarding B4, the binding result in experiment [4] is recorded as “binds”.

B5: BIIB-12-1320 (antibody, V domains shown)
VH: QLQLQESGPGLVKPSETLSLTCTVSGGSISSSSYYWGWIRQPPGKGLEWIGSIYYSGSTYYNPSLKSRVTISVDTSKNQFSLKLSSVTAADTAVYYCARGSGLLVREHYYYYMDVWGKGTTVTVS
VL: DIQMTQSPSSLSASVGDRVTITCRASQSISSYLNWYQQKPGKAPKLLIYAASSLQSGVPSRFSGSGSGTDFTLTISSLQPEDFATYYCQQADDTPWTFGGGTKVEIK
notes: IgG
Regarding B5, in the experiment with FXa-SM (FXa+EGR-CMK), the binding result was “binds”.

B6: BIIB-9-631 (antibody, V domains shown)
VH: QVQLVQSGAEVKKPGASVKVSCKASGYTFTSYYMHWVRQAPGQGLEWMGIINPSGGSTSYAQKFQGRVTMTRDTSTSTVYMELSSLRSEDTAVYYCARAENRGDYEAWGQGTLVTVSS
VL: DIQMTQSPSSVSASVGDRVTITCRASQGISRWLAWYQQKPGKAPKLLIYAASSLQSGVPSRFSGSGSGTDFTLTISSLQPEDFATYYCQQRTSFPLTFGGGTKVEIK
notes: IgG
With B6, the binding result in experiment [4] is reported as “binds”.

B7: BIIB-12-1321 (antibody, V domains shown)
VH: QVQLVQSGAEVKKPGSSVKVSCKASGGTFSSYAISWVRQAPGQGLEWMGGIIPIFGTANYAQKFQGRVTITADESTSTAYMELSSLRSEDTAVYYCARTPDTSSATDWGQGTLVTVSS
VL: EIVMTQSPATLSLSPGERATLSCRASQSVSSYLAWYQQKPGQAPRLLIYDSSNRATGIPARFSGSGSGTDFTLTISSLEPEDFAVYYCQQFTNLPYTFGGGTKVEIK
notes: IgG
For the molecule B7, in the experiment with FXa-SM (FXa+EGR-CMK), the binding result is given as “binds”.

B8: BIIB-12-894 (antibody, V domains shown)
VH: QLQLQESGPGLVKPSETLSLTCTVSGGSISSSSYYWGWIRQPPGKGLEWIGSIYYSGSTYYNPSLKSRVTISVDTSKNQFSLKLSSVTAADTAVYYCAREGAHSSMAGLDVWGQGTMVTVSS
VL: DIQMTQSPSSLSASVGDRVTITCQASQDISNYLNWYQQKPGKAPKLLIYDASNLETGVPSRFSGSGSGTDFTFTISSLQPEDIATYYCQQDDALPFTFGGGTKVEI
notes: IgG
Regarding B8, in the experiment with FXa-SM (FXa+EGR-CMK), the binding result was “binds”.

As usually defined, the Kd is the constant that tells how readily two partners part at equilibrium.

These data come from patent US20230192896A1 (BIOVERATIV THERAPEUTICS, published 2023).
